Source: US20260242478A1 (published 2026)
Where no end group is shown, it is not given here.

B1: Phage-909 (peptide)
peptide: YCDGHAAEYMAKCV
notes: Peptide-87 library clone, tested as clonal phage supernatant with the peptide fused to the pIII filament of the bacteriophage
B2: Phage-910 (peptide)
peptide: YCEGHAQEYMNKCL
notes: as for B1
B3: Phage-912 (peptide)
peptide: YCDGHSADYMAKCL
notes: as for B1
B4: Phage-913 (peptide)
peptide: YCDGHIGLYLNKCL
notes: as for B1
B5: Phage-914 (peptide)
peptide: YCEGHLPMYMIKCL
notes: as for B1
B6: Phage-915 (peptide)
peptide: YCEGHLPQYMRPCL
notes: as for B1
B7: Phage-916 (peptide)
peptide: YCEGHLSQYMSKCL
notes: as for B1
B8: Phage-917 (peptide)
peptide: YCDGHSPEYIGKCL
notes: as for B1
B9: Phage-918 (Peptide-87 library clone, SEQ ID NO: 1234) (peptide)
peptide: YCAGHLPEFMDKCL
modifications: cysteine pairing not given here; also: fused to phage pIII
notes: Tested as clonal phage supernatant; not shown: fused to the pIII filament protein of the bacteriophage
B10: Phage-919 (Peptide-87 library clone, SEQ ID NO: 1235) (peptide)
peptide: YCDGHSREYMNKCL
modifications: cysteine pairing not given here; also: fused to phage pIII
notes: as for B9
B11: Phage-920 (Peptide-87 library clone, SEQ ID NO: 1236) (peptide)
peptide: YCDGHDVEYMAKCL
modifications: cysteine pairing not given here; also: fused to phage pIII
notes: as for B9
B12: Phage-921 (Peptide-87 library clone, SEQ ID NO: 1237) (peptide)
peptide: YCDGHSEVYMAKCL
modifications: cysteine pairing not given here; also: fused to phage pIII
notes: as for B9
B13: Phage-922 (Peptide-87 library clone, SEQ ID NO: 1238) (peptide)
peptide: YCDGHSLLYLSKCL
modifications: cysteine pairing not given here; also: fused to phage pIII
notes: as for B9
B14: Phage-923 (Peptide-87 library clone, SEQ ID NO: 1239) (peptide)
peptide: YCEGHLAVYMEKCL
modifications: cysteine pairing not given here; also: displayed fused to phage pIII protein, fusion end and linker not given here
notes: as for B9
B15: Phage-924 (Peptide-87 library clone, SEQ ID NO: 1240) (peptide)
peptide: YCEGHSLMYMWKCL
modifications: cysteine pairing not given here; also: displayed fused to phage pIII protein, fusion end and linker not given here
notes: as for B9
B16: Phage-925 (Peptide-87 library clone, SEQ ID NO: 1241) (peptide)
peptide: YCAGHAAEYMTKCL
modifications: cysteine pairing not given here; also: displayed fused to phage pIII protein, fusion end and linker not given here
notes: as for B9
B17: Phage-926 (Peptide-87 library clone, SEQ ID NO: 1242) (peptide)
peptide: YCDGHSVEYMEKCL
modifications: cysteine pairing not given here; also: displayed fused to phage pIII protein, fusion end and linker not given here
notes: as for B9
B18: Phage-927 (Peptide-87 library clone, SEQ ID NO: 1243) (peptide)
peptide: YCDGHAQEYRLKCL
modifications: cysteine pairing not given here; also: displayed fused to phage pIII protein, fusion end and linker not given here
notes: as for B9
B19: Phage-928 (Peptide-87 library clone, SEQ ID NO: 1244) (peptide)
peptide: YCDGHSAEYLLKCL
modifications: cysteine pairing not given here; also: displayed fused to phage pIII protein, fusion end and linker not given here
notes: as for B9
B20: Phage-929 (Peptide-87 library clone, SEQ ID NO: 1245) (peptide)
peptide: YCDGHGPQYIQKCL
modifications: cysteine pairing not given here; also: displayed fused to phage pIII protein, fusion end and linker not given here
notes: as for B9
B21: Phage-930 (Peptide-87 library clone, SEQ ID NO: 1246) (peptide)
peptide: YCEGHIAEYMQKCL
modifications: cysteine pairing not given here; also: displayed fused to phage pIII protein, fusion end and linker not given here
notes: as for B9

Biological target: Anti-CD28 Fab (SEQ ID NOs: 696, 697)
Assay: phage binding ELISA; biotinylated anti-CD28 Fab on neutravidin plate, clonal phage supernatant, anti-M13 HRP detection
Target sequence in this assay (VH, as listed by the source, chain 1 of 2): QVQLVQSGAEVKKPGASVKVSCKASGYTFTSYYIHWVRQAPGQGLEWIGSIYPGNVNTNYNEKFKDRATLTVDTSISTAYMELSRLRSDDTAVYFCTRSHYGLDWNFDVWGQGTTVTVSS
Target sequence in this assay (VL, as listed by the source, chain 2 of 2): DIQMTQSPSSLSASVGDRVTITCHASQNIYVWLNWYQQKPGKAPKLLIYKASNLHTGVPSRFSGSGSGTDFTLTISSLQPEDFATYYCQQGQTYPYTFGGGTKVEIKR

Point of comparison: B2, “Anti-CD28 Fab signal (phage binding ELISA)” value 1.67. Against it:
- B1 — the same, 1.67
- B3 — the same, 1.67
- B4 — lower, 1.66
- B5 — lower, 1.66
- B6 — lower, 1.66
- B7 — lower, 1.66
- B8 — lower, 1.66

Biological target: T1, Anti-CD28 Fab (SEQ ID NOs: 696, 697)
T1 construct: In the phage ELISA the Fab was biotinylated and captured on neutravidin coated plates
Assay: as above
T1 sequence (VH, as listed by the source, chain 1 of 2): as the sequence (VH, as listed by the source, chain 1 of 2) above
T1 sequence (VL, as listed by the source, chain 2 of 2): as the sequence (VL, as listed by the source, chain 2 of 2) above

Point of comparison: B19, “Anti-CD28 Fab signal (phage binding ELISA)” value 1.65. Against it:
- B9 — higher, 1.66
- B10 — higher, 1.66
- B11 — higher, 1.66
- B12 — higher, 1.66
- B13 — the same, 1.65
- B14 — the same, 1.65
- B15 — the same, 1.65
- B16 — the same, 1.65
- B17 — the same, 1.65
- B18 — the same, 1.65
- B20 — lower, 1.64
- B21 — lower, 1.64

Biological target: T2, Anti-CD28 Fab (SEQ ID NOs: 696, 697)
T2 construct: In the phage ELISA the Fab was biotinylated and captured on neutravidin coated plates
Assay: phage ELISA; clonal phage supernatant on biotinylated anti-CD28 Fab captured on neutravidin, anti-M13 HRP detection
T2 sequence (VH, as listed by the source, chain 1 of 2): as the sequence (VH, as listed by the source, chain 1 of 2) above
T2 sequence (VL, as listed by the source, chain 2 of 2): as the sequence (VL, as listed by the source, chain 2 of 2) above
Experimental: (§1) After panning, phage infected bacteria were plated out and colonies picked into 96 well blocks. Clonal phage was then amplified and separated from bacterial cells via centrifugation.
(§2) Clonal phage were harvested as crude supematants and screened via standard ELISAs. […] Prior to the addition of clonal phage, wells were incubated with blocking buffer and CD28 antigen or blocking buffer alone. Without washing or aspirating, clonal phage supematants were then added to the wells and incubated for a short time. Wells were then washed followed by detection of bound phage using a horse radish conjugated anti-M13 antibody. Clonal phage of interest were then sent for sequence analysis.

Point of comparison: YCAGHAPEYMSKCL [Phage-939], “Anti-CD28 Fab signal (phage binding ELISA)” value 1.63. Against it:
- YCEGHSAQYMHKCL [Phage-931] — higher, 1.64
- YCEGHTAEHMQKCL [Phage-932] — higher, 1.64
- YCAGHVAEYMAKCL [Phage-933] — higher, 1.64
- YCDGHATEYMQKCL [Phage-934] — higher, 1.64
- YCEGHMWEYMAKCL [Phage-935] — higher, 1.64
- YCDGHDVEYMSKCL [Phage-936] — higher, 1.64
- YCAGHSLEYMQKCL [Phage-937] — the same, 1.63
- YCEGHDLIYMWKCL [Phage-938] — the same, 1.63
- YCEGHSSEYMWKCL [Phage-940] — the same, 1.63
- YCDGHLDVYRAKCL [Phage-941] — the same, 1.63
- YCEGHLEQYMQKCL [Phage-942] — the same, 1.63
- YCEGHSWVYMAKCL [Phage-943] — the same, 1.63

Biological target: T3, Anti-CD28 Fab (SEQ ID NOs: 696, 697)
T3 construct: Biotinylated and captured on neutravidin coated plates in the phage ELISA
Assay: phage ELISA; biotinylated anti-CD28 Fab on neutravidin plate, clonal phage supernatant, anti-M13 HRP
T3 sequence (VH, as listed by the source, chain 1 of 2): as the sequence (VH, as listed by the source, chain 1 of 2) above
T3 sequence (VL, as listed by the source, chain 2 of 2): as the sequence (VL, as listed by the source, chain 2 of 2) above

Point of comparison: YCDGHSEAFMQKCL [Phage-945], “Phage binding ELISA, Anti-CD28 Fab signal” value 1.63. Against it:
- YCDGHSLEYIGKCL [Phage-944] — the same, 1.63

Biological target: T2, Anti-CD28 Fab (SEQ ID NOs: 696, 697)
Assay: phage ELISA on captured anti-CD28 Fab; competitor: CD28 antigen pre-incubated on the Fab
Experimental: as §1, §2

Point of comparison: YCEGHSAQYMHKCL [Phage-931], “Anti-CD28 Fab signal in the presence of CD28 (phage binding ELISA)” value 0.06. Against it:
- YCEGHTAEHMQKCL [Phage-932] — lower, 0.05
- YCAGHVAEYMAKCL [Phage-933] — the same, 0.06
- YCDGHATEYMQKCL [Phage-934] — higher, 0.1
- YCEGHMWEYMAKCL [Phage-935] — higher, 0.13
- YCDGHDVEYMSKCL [Phage-936] — lower, 0.05
- YCAGHSLEYMQKCL [Phage-937] — higher, 0.07
- YCEGHDLIYMWKCL [Phage-938] — the same, 0.06
- YCAGHAPEYMSKCL [Phage-939] — lower, 0.05
- YCEGHSSEYMWKCL [Phage-940] — higher, 0.09
- YCDGHLDVYRAKCL [Phage-941] — higher, 0.09
- YCEGHLEQYMQKCL [Phage-942] — the same, 0.06
- YCEGHSWVYMAKCL [Phage-943] — higher, 0.07

Biological target: Anti-CD28 Fab (SEQ ID NOs: 696, 697)
Assay: phage binding ELISA on captured anti-CD28 Fab; competitor: CD28 antigen preincubated in the wells
Target sequence in this assay (VH, as listed by the source, chain 1 of 2): as the sequence (VH, as listed by the source, chain 1 of 2) above
Target sequence in this assay (VL, as listed by the source, chain 2 of 2): as the sequence (VL, as listed by the source, chain 2 of 2) above

Point of comparison: B2, “Anti-CD28 Fab signal in the presence of CD28 (phage binding ELISA)” value 0.06. Against it:
- B1 — higher, 0.07
- B3 — higher, 0.07
- B4 — the same, 0.06
- B5 — higher, 0.09
- B6 — higher, 0.08
- B7 — higher, 0.07
- B8 — higher, 0.07

Biological target: T1, Anti-CD28 Fab (SEQ ID NOs: 696, 697)
Assay: phage binding ELISA; Fab-coated wells pre-incubated with CD28 antigen as competitor, anti-M13 HRP detection;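 note: crude clonal phage supernatants from panned colonies added to wells after blocking buffer plus CD28 treatment, bound phage measured after a brief incubation and washing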
Experimental: as §1, §2

Point of comparison: B15, “Anti-CD28 Fab signal in the presence of CD28 (phage binding ELISA)” value 0.08. Against it:
- B9 — lower, 0.06
- B10 — lower, 0.06
- B11 — lower, 0.07
- B12 — lower, 0.06
- B13 — lower, 0.07
- B14 — higher, 0.12
- B16 — lower, 0.07
- B17 — higher, 0.09
- B18 — lower, 0.07
- B19 — lower, 0.07
- B20 — lower, 0.07
- B21 — higher, 0.13

Biological target: T3, Anti-CD28 Fab (SEQ ID NOs: 696, 697)
Assay: phage ELISA; captured anti-CD28 Fab pre-incubated with CD28 antigen as competitor, anti-M13 HRP;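 note: crude clonal phage supernatants added without washing after CD28 pre-incubation, bound phage detected with HRP anti-M13 antibody, reference wells got blocking buffer lacking CD28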

Point of comparison: YCDGHSLEYIGKCL [Phage-944], “Phage binding ELISA, Anti-CD28 Fab signal in the presence of CD28” value 0.06. Against it:
- YCDGHSEAFMQKCL [Phage-945] — higher, 0.07
